Test results: patent US20240083986A1 (published 2024)

T1: European Hornbeam (Car b 1 isoform 1A & 1B, MyBiosource, Cat #MBS1200018) (European Hornbeam, UniProt P38949 2-160)
T1 construct: Bought reagent
T1 sequence (looked up): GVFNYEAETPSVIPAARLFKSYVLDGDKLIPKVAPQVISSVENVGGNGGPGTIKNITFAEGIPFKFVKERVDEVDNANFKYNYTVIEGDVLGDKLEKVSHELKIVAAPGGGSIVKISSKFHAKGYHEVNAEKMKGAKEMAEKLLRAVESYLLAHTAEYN

T2: Alder (Aln g 1, MyBiosource, Cat #MBS1041484) (Alder, UniProt P38948 2-160, limits assumed)
T2 construct: Bought reagent
T2 sequence (looked up): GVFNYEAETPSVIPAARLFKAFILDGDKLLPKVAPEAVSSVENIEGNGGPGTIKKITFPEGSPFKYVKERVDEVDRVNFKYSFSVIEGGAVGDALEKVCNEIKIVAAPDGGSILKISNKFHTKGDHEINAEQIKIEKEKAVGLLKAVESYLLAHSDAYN

T3: CHO produced recombinant Bet v 1 containing a S85A mutation with a C-terminal myc-myc hexahistidine tag … (Betula verrucosa (birch))
T3 chain: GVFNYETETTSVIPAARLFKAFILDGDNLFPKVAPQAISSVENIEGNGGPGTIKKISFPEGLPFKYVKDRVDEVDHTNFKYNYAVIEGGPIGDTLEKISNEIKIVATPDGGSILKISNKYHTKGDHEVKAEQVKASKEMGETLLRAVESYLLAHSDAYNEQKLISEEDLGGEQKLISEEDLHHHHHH

T4: Apple (Mal d 1, MyBiosource, Cat #MBS1224919) (Apple, UniProt P43211 2-159, limits assumed)
T4 construct: Bought reagent
T4 sequence (looked up): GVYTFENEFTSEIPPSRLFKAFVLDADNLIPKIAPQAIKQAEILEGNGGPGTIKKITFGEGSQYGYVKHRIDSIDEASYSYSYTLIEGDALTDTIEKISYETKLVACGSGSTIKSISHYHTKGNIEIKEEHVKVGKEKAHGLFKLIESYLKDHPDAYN

T5: Celery (Api g 1, MyBiosource, Cat #MBS1171376) (Celery, UniProt P49372 1-154, limits assumed)
T5 construct: Bought reagent
T5 sequence (looked up): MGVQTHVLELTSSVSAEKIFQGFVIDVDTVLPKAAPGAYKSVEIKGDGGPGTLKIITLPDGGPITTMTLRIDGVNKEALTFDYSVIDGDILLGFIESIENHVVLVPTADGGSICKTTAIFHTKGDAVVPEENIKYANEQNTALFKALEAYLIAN

T6: European Hornbeam (Car b 1 isoform 2, MyBiosource, Cat #MBS1043940) (European Hornbeam, UniProt P38950 2-160, limits assumed)
T6 construct: Bought reagent
T6 sequence (looked up): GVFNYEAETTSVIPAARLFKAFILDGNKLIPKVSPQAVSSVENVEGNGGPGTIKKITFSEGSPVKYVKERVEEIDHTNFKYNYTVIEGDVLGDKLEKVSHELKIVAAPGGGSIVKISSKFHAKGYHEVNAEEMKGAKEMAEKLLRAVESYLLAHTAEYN

B1: H4H16960P (antibody, human IgG4, V domains shown)
VH: QLQLQESGPGLVRPSETLSLTCTVSGGSISSSNYWWGWIRQPPGKGLEWIGSIYYSGITYYNPSLKSRVTISADTSKDQFSLKLRSVTAADTAVYYCAKLEWLRLDFWGQGTTVTVSS
VL: DIQMTQSPSSVSASVGDRVTITCRASQGISSWLVWYQQKPGKVPKLLIYAASSLQSGVPLRFSGSGSGTDFTLTISSLQPEDFATYYCQQAKSFPLTFGQGTRLEIK
notes: Fully human antibody with human IgG4 Fc (H4H prefix)
B2: H4H16943P (antibody, human IgG4, V domains shown)
VH: EVQLVESGGGLVQPGGSLRLSCTASGFMSSMYWMSWVRQAPGKGLEWVSNIKQDGTEKNYVESVKGRFTISRDNAKNSLYLQINSLRGEDTAVYYCARDLYSSSSGYYYYGLDVWGQGTTVTVSS
VL: DIVMTQSPLSLPVTPGEPASISCRSSQSLLHSNKYNYLDWYLQKPGQSPQLLIYLSSNRASGVPDRFSGSGSGTEFTLKISRVEAEDVGIYYCMQALHTPLTFGGGTKVEIK
notes: as for B1
B3: H4H16967P (antibody, human IgG4, V domains shown)
VH: QVQLVESGGGVVQPGRSLRLSCAASGFTFSSYGMHWFRQAPGKGLEWVGVIWSDGSDKKYADSVKGRFTISRDNSKNTLYLLMNSLRDDDTAVYHCAREGGFLYSSSSHFDYWGQGTLVTVSS
VL: AIQMTQSPSSLSASVGDRVTITCRTSQGIRNDLGWYQQKPGKAPKLLIFAASSLQSGVPSRFSGSGSGTDFTLTISSLQPEDFAIYYCLQDYKYPFTFGGGTKVEIK
notes: as for B1
B4: H4H16971P (antibody, human IgG4, V domains shown)
VH: QVQLVESGGGVVQPGRSLRLSCAASGFTFSSYGLHWVRQAPGKGLEWVAVISDDGSYKFYADSMKGRFTISRDNSKNTLYLQMNSLRAEDTAVYYCAKDRGRSGWYYFDYWGQGTLVTVSS
VL: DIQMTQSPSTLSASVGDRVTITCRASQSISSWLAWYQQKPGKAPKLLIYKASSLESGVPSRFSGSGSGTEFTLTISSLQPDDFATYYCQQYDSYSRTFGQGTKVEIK
notes: as for B1
B5: H4H16950P (antibody, human IgG4, V domains shown)
VH: QVQLVQSGAEVKKPGASVKVSCKTSGYTFTNYGITWVRQAPGQGLEWMGWISAYNGNTNYAQNVQGRVTMTTDTSTSTAYMEVRSLRSDDTAVYYCARRSSMLHFQHWGQGTLVTVSS
VL: DIVMTQSPDSLAVSLGERATINCKSSQHVLYDSSNENYLAWFQQKPGQPPKLLIYWASTRESGVPDRFSGSGSGTDFTLTISSLQAEDVAVYYCQQYSSAPYTFGQGTKLEIK
notes: as for B1
B6: H4H16992P (antibody, human IgG4 S228P, kappa, V domains shown)
VH: QVQLQESGPGLVKPSETLSLTCSVSGGSITNYFWTWIRQSPGKGLEWIGYIYYSGGTNYNPSLKSRVTISIDTSKNQFSLNMNSVTAADTAVYYCAGSYYYGVDVWGQGTTVTVSS
VL: EIVLTQSPATLSLSPGERATLSCRASQSIKSFLAWYRQKPGQAPRLLIYDASNRPTGIPARFSGSGSGTDFTLTINSLESEDFAVYFCQQRNNWPFTFGPGTKVDIKR
notes: human IgG4 Fc; also called REGN5713; MAB1
B7: H4H16946P (antibody, human IgG4, V domains shown)
VH: EVQLVESGGGLVQPGGSLRLSCVASGFTFSNYDMNWVRQAPGEGLEWISYISYSDHNIYYIDSVKGRFTISRDNAKNSLYLQMNSLRAEDTAIYYCAREALASSSFDYWGQGTLVTVSS
VL: EIVMTQSPATLSVSPGERVTLSCRASQSVSGNLAWYQQKPGQAPRLLIYSASTGATGVPARFSGSGSGTEFTLTISSLQSEDFALYYCQQYNKWPRTIGQGTKVEIK
notes: as for B1

These binders were tested against T1, European Hornbeam (Car b 1 isoform 1A & …) (assay: SPR, mAb captured via anti-hFc, 25 C).
Description: (§1) Equilibrium dissociation constants (KD) for different related allergens binding to purified anti-Bet v 1 monoclonal antibodies were determined using a real-time surface plasmon resonance biosensor (SPR-Biacore) on a Biacore 4000 instrument. All binding studies were performed in 10 mM HEPES, 150 mM NaCl, 3 mM EDTA, and 0.05% v/v surfactant Tween-20, pH 7.4 (HBS-ET) running buffer at 25° C. […] Binding studies were performed on the following related allergens: Alder (Aln g 1, MyBiosource, Cat #MBS1041484), Apple (Mal d 1, MyBiosource, Cat #MBS1224919), Carrot (Dau c 1.2, MyBiosource, Cat #MBS1212920), Celery (Api g 1, MyBiosource, Cat #MBS1171376), Celery (Api g 2, MyBiosource, Cat #MBS1047880), European Hornbeam (Car b 1 isoform 1A & 1B, MyBiosource, Cat #MBS1200018), European Hornbeam (Car b 1 isoform 2, MyBiosource, Cat #MBS1043940), Hazel (Cor A 1, MyBiosource, Cat #MBS5304600), and White Oak (Que a 1, MyBiosource, Cat #MBS1258822). […] Association (kₐ) and dissociation (kd) rate constants were determined by fitting the real-time binding sensorgrams to a 1:1 binding model with mass transport limitation using Scrubber 2.0c curve-fitting software. Binding dissociation equilibrium constants (KD) and dissociative half-lives (t½) were calculated from the kinetic rate constants as:

100 nM Analyte Bound (RU) | binding result | Kd | koff | kon | t½ | Binder
4 RU | no binding (tested: 100 nM) | – | – | – | – | B1
26 RU | – | 380 nM | 0.0578 s⁻¹ | 152000 M⁻¹ s⁻¹ | 0.2 min | B2
-1 RU | – | – | – | – | – | B3
1 RU | no binding (tested: 100 nM) | – | – | – | – | B4
-1 RU | – | – | – | – | – | B5
161 RU | – | 1.2 nM | – | – | 34 min | B6
63 RU | – | 168 nM | 0.024 s⁻¹ | 143000 M⁻¹ s⁻¹ | 0.5 min | B7

The binders below were run against T2, Alder (Aln g 1, MyBiosource, Cat …) (assay: SPR, mAb captured via anti-hFc, 25 C).
Description: as §1

100 nM Analyte Bound (RU) | Kd | koff | kon | t½ | binding result | Binder
29 RU | 147 nM | 0.0332 s⁻¹ | 226000 M⁻¹ s⁻¹ | 0.3 min | – | B1
1 RU | – | – | – | – | no binding (tested: 100 nM) | B2
0 RU | – | – | – | – | no binding (tested: 100 nM) | B3
41 RU | 126 nM | 0.0118 s⁻¹ | 93000 M⁻¹ s⁻¹ | 1 min | – | B4
15 RU | 175 nM | 0.016 s⁻¹ | 91200 M⁻¹ s⁻¹ | 0.7 min | – | B5
5 RU | – | – | – | – | no binding (tested: 100 nM) | B6
2 RU | – | – | – | – | no binding (tested: 100 nM) | B7

Biological target: T3, CHO produced recombinant Bet v 1 …
Assay: SPR, mAb captured via anti-hFc, 37 C
Description: (§2) Equilibrium dissociation constants (KD) for natural Bet v 1 binding to purified anti-Bet v 1 monoclonal antibodies were determined using a real-time surface plasmon resonance biosensor (SPR-Biacore) on a Biacore 4000 instrument. All binding studies were performed in 10 mM HEPES, 150 mM NaCl, 3 mM EDTA, and 0.05% v/v surfactant Tween-20, pH 7.4 (HBS-ET) running buffer at 25° C. and 37° C. […] Association (kₐ) and dissociation (kd) rate constants were determined by fitting the real-time binding sensorgrams to a 1:1 binding model with mass transport limitation using Scrubber 2.0c curve-fitting software. Binding dissociation equilibrium constants (KD) and dissociative half-lives (t½) were calculated from the kinetic rate constants as:

100 nM natural Bet v 1-MHH Bound (RU) | Kd | koff | kon | t½ | Binder
72 RU | 2.01 nM | 0.00177 s⁻¹ | 879000 M⁻¹ s⁻¹ | 6.5 min | B1
0 RU | – | – | – | – | B2
-1 RU | – | – | – | – | B3
60 RU | 18.6 nM | 0.012 s⁻¹ | 648000 M⁻¹ s⁻¹ | 1 min | B4
83 RU | 5.81 nM | 0.00125 s⁻¹ | 215000 M⁻¹ s⁻¹ | 9.2 min | B5
97 RU | 0.655 nM | 0.000395 s⁻¹ | 603000 M⁻¹ s⁻¹ | 29 min | B7

These binders were tested against T4, Apple (Mal d 1, MyBiosource, Cat …) (assay: SPR, mAb captured via anti-hFc, 25 C).
Description: as §1

100 nM Analyte Bound (RU) | binding result | Kd | koff | kon | t½ | Binder
1 RU | no binding (tested: 100 nM) | – | – | – | – | B1
-1 RU | – | – | – | – | – | B2
-2 RU | – | – | – | – | – | B3
25 RU | – | 494 nM | 0.0795 s⁻¹ | 161000 M⁻¹ s⁻¹ | 0.2 min | B4
-1 RU | – | – | – | – | – | B5
3 RU | no binding (tested: 100 nM) | – | – | – | – | B6
0 RU | no binding (tested: 100 nM) | – | – | – | – | B7

The binders below were run against T5, Celery (Api g 1, MyBiosource, Cat …) (assay: SPR, mAb captured via anti-hFc, 25 C).
Description: as §1

100 nM Analyte Bound (RU) | binding result | Binder
0 RU | no binding (tested: 100 nM) | B1
0 RU | no binding (tested: 100 nM) | B2
-1 RU | – | B3
0 RU | no binding (tested: 100 nM) | B4
0 RU | no binding (tested: 100 nM) | B5
1 RU | no binding (tested: 100 nM) | B6
1 RU | no binding (tested: 100 nM) | B7

What follows are binders tested against T6, European Hornbeam (Car b 1 isoform 2, …) (assay: SPR, mAb captured via anti-hFc, 25 C).
Description: as §1

100 nM Analyte Bound (RU) | binding result | Kd | koff | kon | t½ | Binder
1 RU | no binding (tested: 100 nM) | – | – | – | – | B1
183 RU | – | 0.335 nM | 0.000371 s⁻¹ | 1.11e+06 M⁻¹ s⁻¹ | 31 min | B2
0 RU | no binding (tested: 100 nM) | – | – | – | – | B3
23 RU | – | 564 nM | 0.146 s⁻¹ | 259000 M⁻¹ s⁻¹ | 0 min | B4
0 RU | no binding (tested: 100 nM) | – | – | – | – | B5
– | – | 0.617 nM | – | – | – | B6
63 RU | – | 179 nM | 0.0138 s⁻¹ | 76900 M⁻¹ s⁻¹ | 0.8 min | B7

Biological target: T3, CHO produced recombinant Bet v 1 …
Assay: SPR, mAb captured via anti-hFc, 25 C
Description: as §2

100 nM natural Bet v 1- MMH Bound (RU) | Kd | koff | kon | t½ | binding result | Binder
64 RU | 0.789 nM | 0.000443 s⁻¹ | 562000 M⁻¹ s⁻¹ | 26 min | – | B1
0 RU | – | – | – | – | no binding (tested: 100 nM) | B2
0 RU | – | – | – | – | – | B3
58 RU | 9.48 nM | 0.00386 s⁻¹ | 407000 M⁻¹ s⁻¹ | 3 min | – | B4
70 RU | 2.21 nM | 0.000335 s⁻¹ | 151000 M⁻¹ s⁻¹ | 35 min | – | B5
83 RU | 0.348 nM | 0.000141 s⁻¹ | 405000 M⁻¹ s⁻¹ | 82 min | – | B7
